The target in assay [1] is T1, VLA-4 (α4β1) on Jurkat cells, clone E6-1 (UniProt P13612 34-1032; P05556 21-798, limits assumed).
T1 construct: whole, on cells; Endogenous integrin on Jurkat cells; also called very late antigen-4; CD49d/CD29
Description: radiolabeled VCAM-Ig (~100 pM) on Jurkat cells, 1 mM MnCl2, filter plates, scintillation counting. The method, then: (§1) Compounds of this invention were prepared in DMSO at 100× the desired final assay concentration. Final concentrations were selected from a range between 0.001 nM-100 μM. Jurkat cells were centrifuged at 400×g for five minutes and resuspended in binding buffer (25 mM HEPES, 150 mM NaCl, 3 mM KCl, 2 mM glucose, 0.1% bovine serum albumin, pH 7.4). The cells were centrifuged again and resuspended in binding buffer supplemented with MnCl_2 at a final concentration of 1 mM. […] The plates were incubated at room temperature for 30 minutes, filtered on a vacuum box, and washed on the same apparatus by the addition of 100 μL of binding buffer containing 1 mM MnCl_2. After insertion of the multiscreen plates into adapter plates (Packard, Meriden, Conn., cat# 6005178), 100 μL of Microscint-20 (Packard cat# 6013621) was added to each well. The plates were then sealed, placed on a shaker for 30 seconds, and counted on a Topcount microplate scintillation counter (Packard). Control wells containing DMSO alone were used to determine the level of VCAM-Ig binding corresponding to 0% inhibition. […] Percent inhibition was then calculated for each test well and the $IC50$ was determined from a ten point titration using a validated four parameter fit algorithm.

For assay [2], the target named is T2, α4β7 integrin on RPMI-8866 cells (human, UniProt P13612 34-1032; P26010 20-798).
T2 construct: whole, on cells; Endogenous integrin on RPMI-8866 cells; also called LPAM-1
T2 sequence (P13612 34-1032, chain 1 of 2): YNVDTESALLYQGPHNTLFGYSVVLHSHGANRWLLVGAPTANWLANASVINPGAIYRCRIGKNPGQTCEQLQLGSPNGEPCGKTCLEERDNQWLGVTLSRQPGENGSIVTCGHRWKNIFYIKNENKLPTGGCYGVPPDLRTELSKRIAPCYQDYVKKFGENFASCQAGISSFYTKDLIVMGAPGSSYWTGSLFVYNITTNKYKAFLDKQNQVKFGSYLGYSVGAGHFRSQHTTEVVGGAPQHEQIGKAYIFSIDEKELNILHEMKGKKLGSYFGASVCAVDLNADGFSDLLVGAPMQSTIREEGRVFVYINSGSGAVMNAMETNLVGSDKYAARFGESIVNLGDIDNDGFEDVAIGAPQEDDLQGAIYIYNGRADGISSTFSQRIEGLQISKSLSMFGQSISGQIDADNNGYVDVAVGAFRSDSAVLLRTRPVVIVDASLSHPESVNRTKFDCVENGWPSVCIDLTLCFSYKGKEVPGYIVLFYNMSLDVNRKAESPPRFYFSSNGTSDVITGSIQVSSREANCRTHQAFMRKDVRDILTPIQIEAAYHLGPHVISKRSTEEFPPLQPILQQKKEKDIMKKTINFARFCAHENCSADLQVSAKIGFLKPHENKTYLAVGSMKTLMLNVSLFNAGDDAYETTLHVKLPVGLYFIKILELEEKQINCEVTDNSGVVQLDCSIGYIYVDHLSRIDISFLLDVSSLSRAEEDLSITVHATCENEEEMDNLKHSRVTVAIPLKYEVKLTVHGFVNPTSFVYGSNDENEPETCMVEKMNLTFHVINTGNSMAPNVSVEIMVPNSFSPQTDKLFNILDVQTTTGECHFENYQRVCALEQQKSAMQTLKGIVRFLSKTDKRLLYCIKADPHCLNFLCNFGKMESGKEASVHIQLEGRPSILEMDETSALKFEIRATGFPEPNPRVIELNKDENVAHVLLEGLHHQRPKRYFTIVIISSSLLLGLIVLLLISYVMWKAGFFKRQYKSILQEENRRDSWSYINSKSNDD
T2 sequence (P26010 20-798, chain 2 of 2): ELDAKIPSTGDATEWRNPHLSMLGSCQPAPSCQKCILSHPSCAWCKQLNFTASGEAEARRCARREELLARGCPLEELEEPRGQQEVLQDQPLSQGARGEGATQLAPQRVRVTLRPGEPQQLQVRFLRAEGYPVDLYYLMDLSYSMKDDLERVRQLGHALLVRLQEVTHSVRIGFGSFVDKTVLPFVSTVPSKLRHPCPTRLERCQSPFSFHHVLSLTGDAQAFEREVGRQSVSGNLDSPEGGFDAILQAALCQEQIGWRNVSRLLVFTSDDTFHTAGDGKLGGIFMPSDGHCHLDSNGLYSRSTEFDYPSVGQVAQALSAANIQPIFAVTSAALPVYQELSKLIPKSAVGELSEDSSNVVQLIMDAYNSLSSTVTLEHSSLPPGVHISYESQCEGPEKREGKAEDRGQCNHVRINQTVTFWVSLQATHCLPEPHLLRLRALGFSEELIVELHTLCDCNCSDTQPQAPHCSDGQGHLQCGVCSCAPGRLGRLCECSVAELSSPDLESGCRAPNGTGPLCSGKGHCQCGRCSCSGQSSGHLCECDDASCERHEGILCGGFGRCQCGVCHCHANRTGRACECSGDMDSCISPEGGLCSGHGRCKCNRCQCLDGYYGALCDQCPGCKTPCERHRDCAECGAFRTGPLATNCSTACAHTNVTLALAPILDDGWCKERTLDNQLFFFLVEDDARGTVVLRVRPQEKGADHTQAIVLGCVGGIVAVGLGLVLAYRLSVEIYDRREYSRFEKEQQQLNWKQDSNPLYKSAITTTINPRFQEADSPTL
The assay is described as follows: radiolabeled VCAM-Ig (<500 pM) on RPMI-8866 cells, MnCl2, filter plates, scintillation counting. On the procedure:
as §1, with “μM.” for “μM. Jurkat cells were centrifuged at 400×g for five minutes and resuspended in binding buffer (25 mM HEPES, 150 mM NaCl, 3 mM KCl, 2 mM glucose, 0.1% bovine serum albumin, pH 7.4). The cells were centrifuged again and resuspended in binding buffer supplemented with MnCl_2 at a final concentration of 1 mM.”, “45 minutes on a plate shaker at 200 rpm,” for “30 minutes,”, “1mM” for “1 mM”, “Coon.,” for “Conn.,”, “IC$50$” for “$IC50$”

This is an account of results in patent US6645939 (MERCK, dated 2003).

T1 sequence (P13612 34-1032 limits assumed, chain 1 of 2): as the sequence (P13612 34-1032, chain 1 of 2) above
T1 sequence (P05556 21-798 limits assumed, chain 2 of 2): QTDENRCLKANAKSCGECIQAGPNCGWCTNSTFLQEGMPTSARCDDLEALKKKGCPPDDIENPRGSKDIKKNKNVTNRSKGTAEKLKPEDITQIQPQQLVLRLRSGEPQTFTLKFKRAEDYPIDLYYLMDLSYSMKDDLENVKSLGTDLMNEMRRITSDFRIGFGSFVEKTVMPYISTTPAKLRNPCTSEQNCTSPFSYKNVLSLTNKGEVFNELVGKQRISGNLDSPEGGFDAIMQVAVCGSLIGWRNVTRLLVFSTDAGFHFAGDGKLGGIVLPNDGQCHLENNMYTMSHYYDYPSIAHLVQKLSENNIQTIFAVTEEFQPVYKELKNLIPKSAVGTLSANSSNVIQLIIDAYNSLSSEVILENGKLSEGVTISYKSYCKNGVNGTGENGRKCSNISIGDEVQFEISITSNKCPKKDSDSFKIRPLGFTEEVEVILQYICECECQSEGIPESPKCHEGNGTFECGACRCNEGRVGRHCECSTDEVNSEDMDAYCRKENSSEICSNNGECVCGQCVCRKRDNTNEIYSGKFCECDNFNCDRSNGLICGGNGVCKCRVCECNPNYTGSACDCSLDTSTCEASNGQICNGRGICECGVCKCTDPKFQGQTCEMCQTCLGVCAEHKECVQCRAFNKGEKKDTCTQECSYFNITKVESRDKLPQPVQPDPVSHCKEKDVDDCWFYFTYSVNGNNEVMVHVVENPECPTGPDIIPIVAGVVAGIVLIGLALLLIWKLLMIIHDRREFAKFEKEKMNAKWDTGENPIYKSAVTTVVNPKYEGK

B1: VCAM-Ig fusion protein (Fc fusion, not shown: small tags and cut ends)
chain: FKIETTPESRYLAQIGDSVSLTCSTTGCESPFFSWRTQIDSPLNGKVTNEGTTSTLTMNPVSFGNEHSYLCTATCESRKLEKGIQVEIYSFPKDPEIHLSGPLEAGKPITVKCSVADVYPFDRLEIDLLKGDHLMKSQEFLEDADRKSLETKSLEVTFTPVIEDIGKVLVCRAKLHIDEMDSVPTVRQAVKEL
modifications: labeled with 125I-Bolton Hunter reagent (sites not given)
With B1, the binding result in assay [1] and in assay [2] was “binds” each time.
